Laboratory results taken from patent US20120172293A1 (Takeda / Millennium, published 2012).
Non-standard residues stand in square brackets, D forms with d. *: point of attachment. X4 = ((1S)-1-Carboxy-3-methylbutyl)carbamoyl, CC(C)C[C@H](NC(=O)*)C(=O)O; X10 = Tetrahydro‑2H‑pyran‑4‑yl‑carbamoyl, O=C(NC1CCOCC1)*; 4‑guanidinomethylbenzoyl = N=C(N)NCc1ccc(C(=O)*)cc1; Arg(Me) = CNC(=N)NCCC[C@H](N)C(=O)O; hArg = N=C(N)NCCCC[C@H](N)C(=O)O; tBuAla = CC(C)(C)C[C@H](N)C(=O)O; 4Pal = N[C@@H](Cc1ccncc1)C(=O)O; d(pGlu) = O=C1CC[C@H](C(=O)O)N1; Cha = N[C@@H](CC1CCCCC1)C(=O)O; Iva = CC[C@](C)(N)C(=O)O; Aib = CC(C)(N)C(=O)O

Experiments:
[1] = molecular target: human Y2 receptor (human) (UniProt P49146); test: cell-based or functional assay
[2] = molecular target: human Y2 receptor (human) (UniProt P49146); test: RBA: displacement of [125I]-PYY from hY2R/CHO membranes

human Y2 receptor (human), sequence (P49146 whole entry): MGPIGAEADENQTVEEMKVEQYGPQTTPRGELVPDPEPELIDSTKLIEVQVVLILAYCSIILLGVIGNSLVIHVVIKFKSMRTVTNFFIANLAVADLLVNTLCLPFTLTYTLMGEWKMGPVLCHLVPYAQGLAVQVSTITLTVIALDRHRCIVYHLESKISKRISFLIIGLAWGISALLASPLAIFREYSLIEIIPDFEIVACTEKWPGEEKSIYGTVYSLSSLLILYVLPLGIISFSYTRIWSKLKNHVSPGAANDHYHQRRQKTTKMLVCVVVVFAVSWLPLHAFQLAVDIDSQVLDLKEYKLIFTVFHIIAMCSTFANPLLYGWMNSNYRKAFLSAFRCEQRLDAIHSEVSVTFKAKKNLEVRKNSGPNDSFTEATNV

Row | GBA EC50 Ratio ([35S]GTPγS binding) (EC50 compound/EC50 PYY(3-36)) [1] | IC50 Ratio (IC50 compound/IC50 PYY(3-36)) [2] | Binder
1 | 0.56 | 0.68 | Ac-[dP]R[4Pal][Cha][Aib]NK[Aib]TRQR[Cha]-NH2 (SMILES CC(=O)N1CCC[C@@H]1C(=O)N[C@@H](CCCNC(=N)N)C(=O)N[C@@H](Cc1ccncc1)C(=O)N[C@@H](CC1CCCCC1)C(=O)NC(C)(C)C(=O)N[C@@H](CC(N)=O)C(=O)N[C@@H](CCCCN)C(=O)NC(C)(C)C(=O)N[C@H](C(=O)N[C@@H](CCCNC(=N)N)C(=O)N[C@@H](CCC(N)=O)C(=O)N[C@@H](CCCNC(=N)N)C(=O)N[C@@H](CC1CCCCC1)C(N)=O)[C@@H](C)O) [Ac-[D-Pro24, Pya(4)26, Cha27,36, Aib28,31, Lys30]-PYY(24-36)]
2 | 1.8 | 1.1 | Ac-S[dP]R[4Pal][Cha][Aib]NR[Aib]TRQR[Cha]-NH2 (SMILES CC(=O)N[C@@H](CO)C(=O)N1CCC[C@@H]1C(=O)N[C@@H](CCCNC(=N)N)C(=O)N[C@@H](Cc1ccncc1)C(=O)N[C@@H](CC1CCCCC1)C(=O)NC(C)(C)C(=O)N[C@@H](CC(N)=O)C(=O)N[C@@H](CCCNC(=N)N)C(=O)NC(C)(C)C(=O)N[C@H](C(=O)N[C@@H](CCCNC(=N)N)C(=O)N[C@@H](CCC(N)=O)C(=O)N[C@@H](CCCNC(=N)N)C(=O)N[C@@H](CC1CCCCC1)C(N)=O)[C@@H](C)O) [Ac-[D-Pro24, Pya(4)26, Cha27,36, Aib28,31, Arg30]-PYY(23-36)]
3 | 1.3 | 0.93 | X4-Q[dP]R[4Pal][Cha][Aib]NK[Aib]TRQR[Cha]-NH2 (not fully specified; printed as [(1S)-1-Carboxy-3-methylbutyl]carbamoyl-[Gln23, D-Pro24, Pya(4)26, Cha27,36, Aib28,31, Lys30]-PYY(23-36))
4 | 1 | 1.1 | Ac-KS[dP]R[4Pal][Cha][Aib]NK[Aib]TRQR[Cha]-NH2 (SMILES CC(=O)N[C@@H](CCCCN)C(=O)N[C@@H](CO)C(=O)N1CCC[C@@H]1C(=O)N[C@@H](CCCNC(=N)N)C(=O)N[C@@H](Cc1ccncc1)C(=O)N[C@@H](CC1CCCCC1)C(=O)NC(C)(C)C(=O)N[C@@H](CC(N)=O)C(=O)N[C@@H](CCCCN)C(=O)NC(C)(C)C(=O)N[C@H](C(=O)N[C@@H](CCCNC(=N)N)C(=O)N[C@@H](CCC(N)=O)C(=O)N[C@@H](CCCNC(=N)N)C(=O)N[C@@H](CC1CCCCC1)C(N)=O)[C@@H](C)O) [Ac-[Lys22,30, D-Pro24, Pya(4)26, Cha27,36, Aib28,31]-PYY(22-36)]
5 | 2.7 | 1.2 | Ac-S[dP][hArg]H[Cha][Aib]NK[Aib]TRQR[Cha]-NH2 (SMILES CC(=O)N[C@@H](CO)C(=O)N1CCC[C@@H]1C(=O)N[C@@H](CCCCNC(=N)N)C(=O)N[C@@H](Cc1c[nH]cn1)C(=O)N[C@@H](CC1CCCCC1)C(=O)NC(C)(C)C(=O)N[C@@H](CC(N)=O)C(=O)N[C@@H](CCCCN)C(=O)NC(C)(C)C(=O)N[C@H](C(=O)N[C@@H](CCCNC(=N)N)C(=O)N[C@@H](CCC(N)=O)C(=O)N[C@@H](CCCNC(=N)N)C(=O)N[C@@H](CC1CCCCC1)C(N)=O)[C@@H](C)O) [Ac-[D-Pro24, Har25, Cha27,36, Aib28,31, Lys30]-PYY(23-36)]
6 | 1.1 | 2 | [d(pGlu)]R[4Pal][Cha][Aib]NK[Aib]TRQR[Cha]-NH2 (SMILES C[C@@H](O)[C@H](NC(=O)C(C)(C)NC(=O)[C@H](CCCCN)NC(=O)[C@H](CC(N)=O)NC(=O)C(C)(C)NC(=O)[C@H](CC1CCCCC1)NC(=O)[C@H](Cc1ccncc1)NC(=O)[C@H](CCCNC(=N)N)NC(=O)[C@H]1CCC(=O)N1)C(=O)N[C@@H](CCCNC(=N)N)C(=O)N[C@@H](CCC(N)=O)C(=O)N[C@@H](CCCNC(=N)N)C(=O)N[C@@H](CC1CCCCC1)C(N)=O) [[D-pGlu24, Pya(4)26, Cha27,36, Aib28,31, Lys30]-PYY(24-36)]
7 | 4.2 | 6.6 | Ac-S[dP]K(Ac)[4Pal][Cha][Aib]NK[Aib]TRQR[Cha]-NH2 (SMILES CC(=O)NCCCC[C@H](NC(=O)[C@H]1CCCN1C(=O)[C@H](CO)NC(C)=O)C(=O)N[C@@H](Cc1ccncc1)C(=O)N[C@@H](CC1CCCCC1)C(=O)NC(C)(C)C(=O)N[C@@H](CC(N)=O)C(=O)N[C@@H](CCCCN)C(=O)NC(C)(C)C(=O)N[C@H](C(=O)N[C@@H](CCCNC(=N)N)C(=O)N[C@@H](CCC(N)=O)C(=O)N[C@@H](CCCNC(=N)N)C(=O)N[C@@H](CC1CCCCC1)C(N)=O)[C@@H](C)O) [Ac-[D-Pro24, Lys(Ac)25, Pya(4)26, Cha27,36, Aib28,31, Lys30]-PYY(23-36)]
8 | 1 | 1.2 | Ac-LS[dP]R[4Pal][Cha][Aib]NK[Aib]TRQR[Cha]-NH2 (SMILES CC(=O)N[C@@H](CC(C)C)C(=O)N[C@@H](CO)C(=O)N1CCC[C@@H]1C(=O)N[C@@H](CCCNC(=N)N)C(=O)N[C@@H](Cc1ccncc1)C(=O)N[C@@H](CC1CCCCC1)C(=O)NC(C)(C)C(=O)N[C@@H](CC(N)=O)C(=O)N[C@@H](CCCCN)C(=O)NC(C)(C)C(=O)N[C@H](C(=O)N[C@@H](CCCNC(=N)N)C(=O)N[C@@H](CCC(N)=O)C(=O)N[C@@H](CCCNC(=N)N)C(=O)N[C@@H](CC1CCCCC1)C(N)=O)[C@@H](C)O) [Ac-[Leu22, D-Pro24, Pya(4)26, Cha27,36, Aib28,31, Lys30]-PYY(22-36)]
9 | 0.89 | 1.2 | Ac-FS[dP]R[4Pal][Cha][Aib]NK[Aib]TRQR[Cha]-NH2 (SMILES CC(=O)N[C@@H](Cc1ccccc1)C(=O)N[C@@H](CO)C(=O)N1CCC[C@@H]1C(=O)N[C@@H](CCCNC(=N)N)C(=O)N[C@@H](Cc1ccncc1)C(=O)N[C@@H](CC1CCCCC1)C(=O)NC(C)(C)C(=O)N[C@@H](CC(N)=O)C(=O)N[C@@H](CCCCN)C(=O)NC(C)(C)C(=O)N[C@H](C(=O)N[C@@H](CCCNC(=N)N)C(=O)N[C@@H](CCC(N)=O)C(=O)N[C@@H](CCCNC(=N)N)C(=O)N[C@@H](CC1CCCCC1)C(N)=O)[C@@H](C)O) [Ac-[Phe22, D-Pro24, Pya(4)26, Cha27,36, Aib28,31, Lys30]-PYY(22-36)]
10 | 2.5 | 2.2 | X4-E[dP]R[4Pal][Cha][Aib]NK[Aib]TRQR[Cha]-NH2 (SMILES CC(C)C[C@H](NC(=O)N[C@@H](CCC(=O)O)C(=O)N1CCC[C@@H]1C(=O)N[C@@H](CCCNC(=N)N)C(=O)N[C@@H](Cc1ccncc1)C(=O)N[C@@H](CC1CCCCC1)C(=O)NC(C)(C)C(=O)N[C@@H](CC(N)=O)C(=O)N[C@@H](CCCCN)C(=O)NC(C)(C)C(=O)N[C@H](C(=O)N[C@@H](CCCNC(=N)N)C(=O)N[C@@H](CCC(N)=O)C(=O)N[C@@H](CCCNC(=N)N)C(=O)N[C@@H](CC1CCCCC1)C(N)=O)[C@@H](C)O)C(=O)O)
11 | 1.8 | 1.8 | Ac-S[dP][Arg(Me)]H[Cha][Aib]NK[Aib]TRQR[Cha]-NH2 (SMILES CNC(=N)NCCC[C@H](NC(=O)[C@H]1CCCN1C(=O)[C@H](CO)NC(C)=O)C(=O)N[C@@H](Cc1c[nH]cn1)C(=O)N[C@@H](CC1CCCCC1)C(=O)NC(C)(C)C(=O)N[C@@H](CC(N)=O)C(=O)N[C@@H](CCCCN)C(=O)NC(C)(C)C(=O)N[C@H](C(=O)N[C@@H](CCCNC(=N)N)C(=O)N[C@@H](CCC(N)=O)C(=O)N[C@@H](CCCNC(=N)N)C(=O)N[C@@H](CC1CCCCC1)C(N)=O)[C@@H](C)O) [Ac-[D-Pro24, Arg(Me)25, Cha27,36, Aib28,31, Lys30]-PYY(23-36)]
12 | 1.6 | 1.1 | X10-E[dP]R[4Pal][Cha][Aib]NK[Aib]TRQR[Cha]-NH2 (SMILES C[C@@H](O)[C@H](NC(=O)C(C)(C)NC(=O)[C@H](CCCCN)NC(=O)[C@H](CC(N)=O)NC(=O)C(C)(C)NC(=O)[C@H](CC1CCCCC1)NC(=O)[C@H](Cc1ccncc1)NC(=O)[C@H](CCCNC(=N)N)NC(=O)[C@H]1CCCN1C(=O)[C@H](CCC(=O)O)NC(=O)NC1CCOCC1)C(=O)N[C@@H](CCCNC(=N)N)C(=O)N[C@@H](CCC(N)=O)C(=O)N[C@@H](CCCNC(=N)N)C(=O)N[C@@H](CC1CCCCC1)C(N)=O) [Tetrahydro-2H-pyran-4-yl-carbamoyl-[Glu23, D-Pro24, Pya(4)26, Cha27,36, Aib28,31, Lys30]-PYY(23-36)]
13 | 1.2 | 0.76 | Ac-S[dP][Iva][4Pal][Cha][tBuAla]NK[Aib]TRQR[Cha]-NH2 (SMILES CC[C@](C)(NC(=O)[C@H]1CCCN1C(=O)[C@H](CO)NC(C)=O)C(=O)N[C@@H](Cc1ccncc1)C(=O)N[C@@H](CC1CCCCC1)C(=O)N[C@@H](CC(C)(C)C)C(=O)N[C@@H](CC(N)=O)C(=O)N[C@@H](CCCCN)C(=O)NC(C)(C)C(=O)N[C@H](C(=O)N[C@@H](CCCNC(=N)N)C(=O)N[C@@H](CCC(N)=O)C(=O)N[C@@H](CCCNC(=N)N)C(=O)N[C@@H](CC1CCCCC1)C(N)=O)[C@@H](C)O) [Ac-[D-Pro24, Iva25, Pya(4)26, Cha27,36, Leu(Me)28, Lys30, Aib31]-PYY(23-36)]
14 | 2.8 | 6.3 | {4‑guanidinomethylbenzoyl}-[Iva]H[Cha][Aib]NK[Aib]TRQR[Cha]-NH2 (SMILES CC[C@](C)(NC(=O)c1ccc(CNC(=N)N)cc1)C(=O)N[C@@H](Cc1c[nH]cn1)C(=O)N[C@@H](CC1CCCCC1)C(=O)NC(C)(C)C(=O)N[C@@H](CC(N)=O)C(=O)N[C@@H](CCCCN)C(=O)NC(C)(C)C(=O)N[C@H](C(=O)N[C@@H](CCCNC(=N)N)C(=O)N[C@@H](CCC(N)=O)C(=O)N[C@@H](CCCNC(=N)N)C(=O)N[C@@H](CC1CCCCC1)C(N)=O)[C@@H](C)O) [4-Guanidinomethylbenzoyl-[Iva25, Cha27,36, Aib28,31, Lys30]-PYY(25-36)]
